From US20250163127A1 come the findings set out here.

One test addresses T1, CD226 (human) (UniProt Q15762).
T1 sequence: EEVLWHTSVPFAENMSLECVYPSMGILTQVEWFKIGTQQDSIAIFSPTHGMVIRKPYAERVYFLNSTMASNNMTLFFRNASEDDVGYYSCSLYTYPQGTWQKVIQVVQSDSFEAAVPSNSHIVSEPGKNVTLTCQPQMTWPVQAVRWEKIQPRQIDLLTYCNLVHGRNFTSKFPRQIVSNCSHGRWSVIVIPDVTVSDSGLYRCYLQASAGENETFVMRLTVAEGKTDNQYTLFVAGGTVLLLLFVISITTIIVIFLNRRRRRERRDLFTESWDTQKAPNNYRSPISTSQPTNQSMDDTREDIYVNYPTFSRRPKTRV
Briefly: flow cytometry, transfected HEK293 cells.

The target of another test is T2, CD96 (human) (UniProt P40200).
T2 sequence: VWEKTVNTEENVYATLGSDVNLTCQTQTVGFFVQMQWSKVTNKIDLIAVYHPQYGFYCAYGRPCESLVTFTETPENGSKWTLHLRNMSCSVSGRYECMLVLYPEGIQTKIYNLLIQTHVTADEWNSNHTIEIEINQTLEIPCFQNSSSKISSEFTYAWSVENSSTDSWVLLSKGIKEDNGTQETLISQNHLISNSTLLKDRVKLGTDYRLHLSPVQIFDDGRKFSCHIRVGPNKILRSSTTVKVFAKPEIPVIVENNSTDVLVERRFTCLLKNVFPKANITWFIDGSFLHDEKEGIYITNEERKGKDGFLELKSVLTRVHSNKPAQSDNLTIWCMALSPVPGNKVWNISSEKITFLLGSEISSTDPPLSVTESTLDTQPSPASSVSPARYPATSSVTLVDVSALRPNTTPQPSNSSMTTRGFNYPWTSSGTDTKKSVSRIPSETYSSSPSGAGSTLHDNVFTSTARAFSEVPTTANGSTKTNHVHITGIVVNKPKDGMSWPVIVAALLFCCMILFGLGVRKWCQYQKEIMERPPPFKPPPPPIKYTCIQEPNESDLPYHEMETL
Briefly: flow cytometry, transfected HEK293 cells. On the technique in general: In flow cytometry, cells or beads pass a laser one at a time.

B1: variant CD155 IgV-Fc, S42L, S52Q, L104E (Fc fusion)
chain: WPPPGTGDVVVQAPTQVPGFLGDSVTLPCYLQVPNMEVTHVLQLTWARHGEQGSMAVFHQTQGPSYSESKRLEFVAARLGAELRNASLRMFGLRVEDEGNYTCEFVTFPQGSRSVDIWLRVL
For B1, the figures for the MFI at 100 nM in the test with CD226 (human) and in the test with CD96 (human) were 6470 and 1700, respectively.
